This is an account of results in doi:10.1101/2023.08.10.552813 (2023).

For orientation: koff means the rate constant with which the complex falls apart. Read a low koff as slow dissociation. For orientation: Kd means a measure of binding affinity in units of concentration. Low readings indicate higher affinity, high ones lower affinity.

To fix the notation:
B1: Heligmosomoides polygyrus Alarmin Release Inhibitor (HpARI), full-length (natural protein)
chain: AGQRCRFTDVERDKGYTGMLLKGRLRKTAGNGRTVELICGRGNHNYTCESGVLKESSPRQARCGCKGILEMLFDMPKEERPSPMYDSVTYDPTPNTPTTVGKDGIWNGVDYRNGSTVKPYCDTGPVINGSSKAVCVSGKWVPTLGVCPKMCSIGSLKENGKFVDVTATTKGDELNPPPREQTLIPIVRKVDKDKVQHGVKVVALCKAEDSTTAAEGVQEFECDNGKWKPEPVPCP
modifications: biotinylated with EZ-Link Sulfo-NHS-Biotin where immobilised for SPR
B2: HpARI_CCP1/2 (HpARI with CCP3 truncated) (domain or fragment)
chain: AGQRCRFTDVERDKGYTGMLLKGRLRKTAGNGRTVELICGRGNHNYTCESGVLKESSPRQARCGCKGILEMLFDMPKEERPSPMYDSVTYDPTPNTPTTVGKDGIWNGVDYRNGSTVKPYCDTGPVINGSSKAVCVSGKWVPTLGVCPK
modifications: biotinylated with EZ-Link Sulfo-NHS-Biotin where immobilised for SPR
B3: HpARI-LD (full-length HpARI with residues 180-188 of the CCP3 loop deleted) (natural protein)
chain: AGQRCRFTDVERDKGYTGMLLKGRLRKTAGNGRTVELICGRGNHNYTCESGVLKESSPRQARCGCKGILEMLFDMPKEERPSPMYDSVTYDPTPNTPTTVGKDGIWNGVDYRNGSTVKPYCDTGPVINGSSKAVCVSGKWVPTLGVCPKMCSIGSLKENGKFVDVTATTKGDELNPPPRKVDKDKVQHGVKVVALCKAEDSTTAAEGVQEFECDNGKWKPEPVPCP
modifications: biotinylated with EZ-Link Sulfo-NHS-Biotin where immobilised for SPR
B4: mouse Interleukin 33 (residues 112-270) (ligand)
chain: SIQGTSLLTQSPASLSTYNDQSVSFVLENGCYVINVDDSGKDQEQDQVLLRYYESPCPASQSGDGVDGKKVMVNMSPIKDTDIWLHANDKDYSVELQRGDVSPPEQAFFVLHKKSSDFVSFECKNLPGTYIGVKDNQLALVEEKDESCNNIMFKLSKI

Like-named read-outs stand apart in the source and are kept apart here.

Experiment in all cases: SPR
(In general: Surface plasmon resonance follows binding to a sensor surface in real time, without labels.)

Test [1] addresses B4.
The target in test [2] is B4.
Test [3] deals with T1, HpARI point mutant of residue W107 (Heligmosomoides polygyrus bakeri, biotinylated with EZ-Link Sulfo-NHS-Biotin where immobilised for SPR).
For test [4], the target named is T2, HpARI point mutant of residue Y112 (Heligmosomoides polygyrus bakeri, biotinylated with EZ-Link Sulfo-NHS-Biotin where immobilised for SPR).
The target of test [5] is T3, HpARI point mutant of residue E70 (Heligmosomoides polygyrus bakeri, biotinylated with EZ-Link Sulfo-NHS-Biotin where immobilised for SPR).
The target in test [6] is T1, HpARI point mutant of residue W107. The source holds these as a separate data set.
Test [7] addresses T2, HpARI point mutant of residue Y112. The source holds these as a separate data set.
Test [8] addresses T3, HpARI point mutant of residue E70. This is another data set of the same source.
Test [9] has as its target T4, HpARI-N152 (HpARI with an N-linked glycan inserted at residue 152, interface A) (Heligmosomoides polygyrus bakeri, N-linked glycan at residue 152).
Test [10] concerns the target T4, HpARI-N152 (HpARI with an N-linked …). This is another data set of the same source.

On to B1, for which, in test [1], the koff worked out at 4.51e-05 s⁻¹.
The same measure, in the same setting: then B2, with 0.00201 s⁻¹.
Take B3: the affinity in test [2], expressed as Kd, was 4530 pM. The molecule further gave a koff in [1] of 0.00296 s⁻¹.
B4: the Kd in test [3] was 1180 pM; in test [4] it was 528 pM; in [5], 310 pM; in [6], about 1200 pM; in test [7] it was about 500 pM; in test [8], about 300 pM. In addition, in [9], the equilibrium dissociation constant (Kd) was 47.4 pM. The koff in [3] was 0.000162 s⁻¹; in test [4], 9.33e-05 s⁻¹; in test [5] it was 9.89e-05 s⁻¹; in [10], 6.12e-05 s⁻¹.
